Experimental data: patent US20010006793A1, “MODULATORS OF EUKARYOTIC CASPASES” (priority 1998, published 2001)

Target: T1, human caspase-8β (Homo sapiens, UniProt Q14790)
T1 construct: expressed in transfected cells; host or cells: Saccharomyces cerevisiae FY250, single-copy ARS/CEN vector YCpGAL1-caspase-8β-L, GAL1 promoter
Test: Yeast screening method: suppression of caspase-8β-induced lethality in S. cerevisiae FY250 double transformants on galactose medium
Format: cell-based
Details: for Caspase Inhibitor: Table 1 Caspase Modulators, identified using the screening method of the invention; for identified as a caspase inhibitor (product of human brain cDNA suppressing caspase-8β-induced cell death): FY250 double transformants, GAL1-driven expression, galactose-containing medium
Text: The invention includes a screening method of determining whether a compound is a caspase modulator. […] A difference between the viability indicator of the first cell and the viability indicator of the second cell is an indication that the compound is a caspase modulator.
As described herein, the transformant expresses the caspase when an inducer of the inducible promoter of the caspase vector is provided to the caspase transformant. When the caspase transformant expresses the caspase, cytotoxicity ensues in the caspase transformant. If an inhibitor of the caspase is provided to the caspase transformant prior to the onset of cytotoxicity, the caspase transformant may be enabled to survive expression of the caspase or the onset of cytotoxicity may be delayed.
The gene encoding p35 was cloned into a yeast-based expression vector designated YCpGAL1-U (wherein U designates a URA3 selectable marker) to yield a YCpGAL1-p35-U inhibitor vector. Yeast cells were co-transformed with the inhibitor vector, YCpGAL1-p35-U, and with the caspase vector, YCpGAL1-caspase-8β-L, to yield a double transformant. Double transformants were plated on SC-leucine-uracil medium supplemented with dextrose to repress GAL1 promoter function. Serial ten-fold dilutions of individual double transformants grown in SC-leucine-uracil medium containing dextrose were prepared and spotted onto SC-leucine-uracil medium comprising dextrose or galactose.
Individual viable colonies of double transformant are isolated, and the test vector comprising the unknown cDNA is isolated.
The screening method used in this Example was performed as follows. A yeast double transformant was prepared by transforming S. cerevisiae strain FY250 with two yeast expression vectors. The first yeast expression vector comprised cDNA encoding a self-activating form of human caspase-8β operably linked to a GAL1 promoter and a LEU2 selectable marker. This first vector was a single copy vector and was designated YCpGAL1-caspase-8β-L. A plurality of second yeast expression vectors was used, each comprising a single random human cDNA sequence operably linked to a GAL1 promoter and a URA3 selectable marker. The cDNA sequences used to generate the plurality of second yeast expression vectors were obtained from a library of cDNAs prepared from human brain cells. The second vectors were multicopy vectors.
Double transformants were propagated on plates containing SC-leucine-uracil agar comprising dextrose. Colonies of double transformants were replica plated on plates containing medium comprising galactose, whereby expression of caspase-8β and of any product encoded by the cDNA of the second vector was induced. […] The second vector was recovered from individual colonies of double transformants which were able to survive on the galactose-containing medium and used, along with the first vector, to transform fresh FY250 cells. […] The identity of individual products encoded by the cDNA of individual second vectors was established by determining the nucleotide sequence of the cDNA and comparing the sequence with databases of known human gene sequences, including Genbank, the EST Database, and the Human Genome Database.

T1 sequence (Q14790 1-464 isoform Q14790-2): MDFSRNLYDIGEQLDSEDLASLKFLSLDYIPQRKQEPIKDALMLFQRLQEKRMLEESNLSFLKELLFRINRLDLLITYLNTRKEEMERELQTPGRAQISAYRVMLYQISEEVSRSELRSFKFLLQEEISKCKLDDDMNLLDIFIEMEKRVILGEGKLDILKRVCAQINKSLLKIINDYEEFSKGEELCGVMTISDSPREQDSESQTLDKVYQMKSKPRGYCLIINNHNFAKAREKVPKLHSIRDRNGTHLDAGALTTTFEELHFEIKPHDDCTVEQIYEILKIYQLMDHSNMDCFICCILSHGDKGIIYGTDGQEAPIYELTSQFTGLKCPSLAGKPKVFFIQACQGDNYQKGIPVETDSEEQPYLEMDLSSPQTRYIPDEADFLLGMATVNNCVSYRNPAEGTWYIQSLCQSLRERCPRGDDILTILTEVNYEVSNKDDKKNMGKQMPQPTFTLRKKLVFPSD

z-VAD-fmk [reference compound]
Caspase Inhibitor: ✓

IETD/fmk [reference compound]
Caspase Inhibitor: ✓

Human Tat Binding Protein: product encoded by human brain cDNA; also known as TBP, SUG1, and 26S proteosomal p45 subunit ATPase
identified as a caspase inhibitor (product of human brain cDNA suppressing caspase-8β-induced cell death): caspase inhibitor
Caspase Inhibitor: ✓

Human Synaptophysin p38: product encoded by human brain cDNA, identified as caspase inhibitor
identified as a caspase inhibitor (product of human brain cDNA suppressing caspase-8β-induced cell death): caspase inhibitor
Caspase Inhibitor: ✓

Human Cytochrome b: product encoded by human brain cDNA, identified as caspase inhibitor
identified as a caspase inhibitor (product of human brain cDNA suppressing caspase-8β-induced cell death): caspase inhibitor
Caspase Inhibitor: ✓
